Test results: the PETadex activity labels (doi:10.1128/aem.01698-25)

B1: unnamed (protein)
chain: MPILNRFAHFQLILCFLISNLVLNAQTGSFVYGDALPDAPELSARGSYAVGVRTLDFVNKGQADVLNSKNGIDPIYDRPLKVEVWYPAQLAEGAKETVVYDEVMGTAHDSLRPLTPITFKGRASRDAAPLTTDGSFPLLVVAHGYVGSRYLMTYLTENLASKGYVVVAIDHTDSTFRDASPFASTLVNRAKDISFVLNQTVNLGKAADNNFLAGLVDSENIGIIGYSMGGYGVLNVAGAGYSDGLVGFFSGMTGGSKAIVDLAMSNPDFPKVDPRIKAVVAFAPWGMERGIWDAEGLKGLKVPTFFIAGSQDDISGYEKGIKAIYTGAVNADRYLLTYENARHNVAPNPPPAESFEPGLHIDEYYRYAEPSWDERKINNVNQHFITAFLGIHLKQKDYSKFLELQENSNEKDWTGFKARSSTGMELLHDKPAP
B2: unnamed (protein)
chain: MKFRALLFSASLIAILFNGLTINTVNAQTNDFLYGDQLPDAPELSSRGEYKVGVKTVNLVNPNQVDILNSKEGNDPTYDRPITIEVWYPANVGDDAKTVVYDEVMGTRGDSLRPLTPFTFKGRAYRDATPKTGNKFPLVVVSHGYVGSRYLMTYLTENLASKGYIVAAIDHTDSTFKDANAFQSTLLNRPKDIRFVINEMEKMGAKGSKNNLEGVVDANNTAIIGYSMGGYGVLNVGGAGYSAGLAQFFTGMTGGSTAISVHTAGNAAYEKMIDARIKAIVAFAPWGMERGVWDAEGLKGLKTPTFFIAGSQDDISGYEKGIKAIYEGAVNADRYLLTYMNARHNVAPNPPPAEALAPGLHIDEYYRYAEPSWDQRKMNNINQHFVTAFIGKHLKNQDSTKFLEVQEDSNEKDWTGFKPRSSTGMELLHAQPAN

Substrate: pNP-C8
Assay: Proxy for plastic degradation [Absorbance @ 405nm]

Protein	Proxy for plastic degradation (4 °C)	Proxy for plastic degradation (10 °C)	Proxy for plastic degradation (20 °C)	Proxy for plastic degradation (30 °C)	Proxy for plastic degradation (40 °C)	Proxy for plastic degradation (50 °C)	Proxy for plastic degradation (60 °C)	Proxy for plastic degradation (70 °C)	Proxy for plastic degradation (80 °C)	Proxy for plastic degradation (90 °C)	Proxy for plastic degradation (pH 3)	Proxy for plastic degradation (pH 4)	Proxy for plastic degradation (pH 5)	Proxy for plastic degradation (pH 9)	Proxy for plastic degradation (pH 9.2)	Proxy for plastic degradation (pH 10.2)
B1	95%	70%	90%	90%	100%	90%	10%	15%	25%	20%	0%	0%	0%	0%	0%	0%
B2	90%	90%	90%	95%	100%	95%	35%	5%	30%	0%	0%	5%	55%	60%	80%	55%
